This note sets out measurements from the RNAGym collection of RNA variant scans (doi:10.7554/elife.80360).

To fix the notation:
B1: HDV Ribozyme (parent)
chain: GGCCGGCAUGGUCCCAGCCUCCUCGCUGGCGCCGGCUGGGCAACAUUCCGAGGGGACCGUCCCCUCGGUAAUGGCGAAUGGGACCCA

The variants in the data set derive from B1. The data set is described as follows: self-cleavage, relative activity (ratio to wild type); higher = more cleavage; co-transcriptional.
With GGACGGCAUGGUCCCAGCUUCCUCGCUGGCGCCGGCUGGGCAACAUUCCGAGGGGACCGUCCCCUCGGUAAUGGCGAAUGGGACCCA, the self-cleavage was 0.0134.
Then GGACGGCAUGGUCCCAGCCUACUCGCUGGCGCCGGCUGGGCAACAUUCCGAGGGGACCGUCCCCUCGGUAAUGGCGAAUGGGACCCA, with 0.0339; and GGACGGCAUGGUCCCAGCCUUCUCGCUGGCGCCGGCUGGGCAACAUUCCGAGGGGACCGUCCCCUCGGUAAUGGCGAAUGGGACCCA, with 0.0314.
As to GGACGGCAUGGUCCCCGCCUCCUCGCUGGCGCCGGCUGGGCAACAUUCCGAGGGGACCGUCCCCUCGGUAAUGGCGAAUGGGACCCA, the self-cleavage turned out to be 0.0875.
With GGACGGCAUGGUCCCGGCCUCCUCGCUGGCGCCGGCUGGGCAACAUUCCGAGGGGACCGUCCCCUCGGUAAUGGCGAAUGGGACCCA, the self-cleavage was determined as 0.401.
Turning to GUCCGGCAUGGUCCCAGCCUCCUCGCUGGCGCCGGCUGGGCAACAUUCCGAGGGGACCGUCCCCACGGUAAUGGCGAAUGGGACCCA, the self-cleavage came to 0.02.
As for GUCCGGCAUGGUCCCAGCCGCCUCGCUGGCGCCGGCUGGGCAACAUUCCGAGGGGACCGUCCCCUCGGUAAUGGCGAAUGGGACCCA, the figure is 0.0256; as for GUCCGGCAUGGUCCCAGCCUCCUCGCUGGCGCCGGCUGGGCAACAUUCCGAGGGGACCGUCCCCUCGGUAAUGGCCAAUGGGACCCA, 0.0279; as for GUCCGGCAUGGUCCCAGCCUCCUCGCUGGCGCCGGCUGGGCAACAUUCCGAGGGGACCGUCCCCUCGGUAAUGGCUAAUGGGACCCA, 0.0762.
Turning to GGAGGGCAUGGUCCCAGCCUCCUCGCUGGCGCCGGCUGGGCAACAUUCCGAGGGGACCGUCCCCUCGGUAAUGGCGAAUGGGACCCA, the self-cleavage was 0.0225.
As to GGACGGCAUGGUCCCAGCCUCCUCGCUGGCGCCGGCUGGGCAUCAUUCCGAGGGGACCGUCCCCUCGGUAAUGGCGAAUGGGACCCA, the self-cleavage came to 0.191.
As to GGACGGCAUGGUCCCAGCCUCCUCGCUGGCGCCGGCUGGGCACCAUUCCGAGGGGACCGUCCCCUCGGUAAUGGCGAAUGGGACCCA, the self-cleavage amounted to 0.0504.
Take GGACGGCAUGGUCCCAGCCUCCUCGCUGGCGCCGGCUGGGCAGCAUUCCGAGGGGACCGUCCCCUCGGUAAUGGCGAAUGGGACCCA: the self-cleavage amounted to 0.0821.
As to GUCCGGCAUGGUCCCAGCCUCCUCGCUGGCGCCGGCUGGGCAACAUUCCGAGGGGACCGUCCCCUCCGUAAUGGCGAAUGGGACCCA, the self-cleavage stood at 0.0678.
With GUCCGGCAUGGUCCCAGCCUCCUCGCUGGCGCCGGCUGGGCAACAUUCCGAGGGGACCGUCCCCUCAGUAAUGGCGAAUGGGACCCA, the self-cleavage was 0.0602.
As for GUCCGGCAUGGUCCCAGCCUCCUCGCUGGCGCCGGCUGGGCAACAUUCCGAGGGGACCGUCCCCUCUGUAAUGGCGAAUGGGACCCA, the figure is 0.0563; as for GUCCGGCAUGGUCCCAGCCUCCUCGCUGGCGCCGGCUGGGCAACAUUCCGAGGGGACCGUCCCCUCGGUAAUGGCGAAUGAGACCCA, 0.
Regarding GGACGGCAUGGUCCCAGCCUCCUCGCUGGCGCCGGCUGGGCAACAUUCCGAGGGGGCCGUCCCCUCGGUAAUGGCGAAUGGGACCCA, the self-cleavage stood at 0.632.
On to GUCCGGCAUGGUCCCAGCCUCCUCGCUGGCGCCGGCUGGGCAACAUUCCGAGGGGACCGUCCCCUCGGUAAUGGCGAAUGGAACCCA, for which the self-cleavage was found to be 0.0189.
On to GUCCGGCAUGGUCCCAGCCUCCUCGCUGGCGCCGGCUGGGCAACACUCCGAGGGGACCGUCCCCUCGGUAAUGGCGAAUGGGACCCA, for which the self-cleavage came to 0.0213.
Then GGACGGCAUGGUCCAAGCCUCCUCGCUGGCGCCGGCUGGGCAACAUUCCGAGGGGACCGUCCCCUCGGUAAUGGCGAAUGGGACCCA, with 0.306; and GGACGGCAUGGUCCGAGCCUCCUCGCUGGCGCCGGCUGGGCAACAUUCCGAGGGGACCGUCCCCUCGGUAAUGGCGAAUGGGACCCA, with 0.237; and GGACGGCUUGGUCCCAGCCUCCUCGCUGGCGCCGGCUGGGCAACAUUCCGAGGGGACCGUCCCCUCGGUAAUGGCGAAUGGGACCCA, with 0.269.
GGACGGCGUGGUCCCAGCCUCCUCGCUGGCGCCGGCUGGGCAACAUUCCGAGGGGACCGUCCCCUCGGUAAUGGCGAAUGGGACCCA: the self-cleavage is 0.578.
As to GUCCGGCACGGUCCCAGCCUCCUCGCUGGCGCCGGCUGGGCAACAUUCCGAGGGGACCGUCCCCUCGGUAAUGGCGAAUGGGACCCA, the self-cleavage amounted to 0.104.
For the variant GUCCGGCAGGGUCCCAGCCUCCUCGCUGGCGCCGGCUGGGCAACAUUCCGAGGGGACCGUCCCCUCGGUAAUGGCGAAUGGGACCCA, the self-cleavage is 0.101.
Turning to GGACGGCAUGGUCCCAGCCUCCUCGCUGGCGCCGGCUGGGCAACAUUCCGAGGGGACCGUCCCCUCGGUUAUGGCGAAUGGGACCCA, the self-cleavage came out at 0.437.
GUCCGGCAUGGUCCCAGCCUCCUCGCUGGCGCCGGCUGGGCAACAUUCCGAGGGGACCGUCCCCUCGGUAAUCGCGAAUGGGACCCA: the self-cleavage was 0.
Take GUCCGGCAUGGUCCCAGCCUCCUCGCUGGCGCCGGCUGGGCAACAUUCCGAGGGGACCGUCCCCUCGGUAAUGGCGAAUCGGACCCA: the self-cleavage came out at 0.0455.
For GUCCGGCAUGGUCCCAGCCUCCUCGCUGGCGCCGGCUGGGCAACAUUCCGAGGGGACCGUCCCCUCGGUAAUGGCGAAUUGGACCCA, the self-cleavage worked out at 0.0208.
In the case of GUCCGGCAUGGUCCCAGCCUCCUCGCUGGCGCCGGCUGGGCAACAUUCCGAGGGGACCGUCCCCUCGGUAAUGGCGAAUAGGACCCA, the self-cleavage came out at 0.0496.
On to GGACGGCAUGGUCCCAGCCUCCUCGCUGGCGCCGGCUGGGCAACAUUCCGGGGGGACCGUCCCCUCGGUAAUGGCGAAUGGGACCCA, for which the self-cleavage was determined as 0.444.
